Data set [1] addresses T1, Aβ(1-40) (Homo sapiens, UniProt P05067).
T1 construct: purchased Research Genetics, Huntsville, Ala., USA; host or cells: chemical synthesis
In words: Fibril formation by Aβ(1-40) with tripeptide ligand, electron microscopy. The data set is classed as biochemical. The conditions noted are these: 100 μM Aβ(1-40), 1 mM ligand peptide, three days at 37° C., PBS pH 7.4, electron microscopy, semi quantitative. Here is the method: (§1) Synthetic peptides corresponding to human Aβ fragments 1-40 (amino acid sequence […]; SEQ ID NO:3), 12-24. and 14-23 were purchased from Research Genetics, Huntsville, Ala., USA. Aβ(1-40) was purified by reverse-phase HPLC over a C18 column, using a linear gradient of acetonitrile running into 0.1% trifluoroacetic acid for elution. The purified peptide was lyophilized, stored at −20° C. and dissolved shortly before experiments. The tripeptides and tetrapeptides were synthesized and purified by reverse-phase HPLC (>70% purity) by Interactiva, Darmstadt, Germany
(§2) The relative abundance and morphology of fibrils was determined by electron microscopy after incubating each of the three Aβ peptides (100 μM) for three days at 37° C. in phosphate buffered saline (50 mM sodium phosphate/150 mM NaCl, pH 7.4) in the presence of 1 mM of a specific tripeptide or tetrapeptide ligand. Aggregates were collected by centrifugation at 20,000×g for 20 minutes. The pellets were suspended in a small volume of water by low-energy sonication for 5 seconds. Aliquots of 8 μl were placed on electron microscopy grids covered by a carbon-stabilized formvar film. Excess fluid was withdrawn after 30 seconds, and after air-drying the grids were negatively stained with 2% uranyl acetate in water. The stained grids were examined and photographed in a Philips CM120TWIN electron microscope operated at 80 kV. For a semi quantitative evaluation of the amount of material in the different specimens, the grids (50 mesh) were first scanned at low magnification and the number of larger fibril bundles per grid square estimated. The specimens were subsequently examined at high magnification to judge the size of the fibril bundles, the presence of smaller fibril aggregates, and the morphology of the individual fibrils.

Data set [2] concerns the target T1, Aβ(1-40). In words: Time-dependent aggregation of Aβ(1-40), amount left in solution after 20,000 xg centrifugation. The following applies: in the presence of the peptide; Aβ(1-40) left in solution after 20,000 xg centrifugation. The data set is classed as biochemical. An excerpt:
The effects of the peptides KAD, AAA, and KFFE (SEQ ID NO:1) on the time-dependent aggregation of Aβ(1-40), determined as the amount of Aβ(1-40) left in solution after 20,000 xg centrifugation, were studied. In the presence of AAA, Aβ(1-40) completely aggregated in 10-15 days. In the presence of KAD, Aβ(1-40) completely aggregated in 30-40 days. In the presence of KFFE (SEQ ID NO:1), Aβ(1-40) completely aggregated in about 3 days (FIG. 8).

The conditions of data set [3]: conditions where Aβ(1-42) readily forms fibrils; Tjernberg et al. 1996, 1999; cited from earlier work.
In the next data set the target is T2, Aβ(14-23) (Homo sapiens, UniProt P05067).
T2 construct: 12-24. and 14-23 were purchased from Research Genetics; purchased Research Genetics, Huntsville, Ala., USA; host or cells: chemical synthesis
Nature of the data set: Fibril formation by Aβ(14-23) with tripeptide or tetrapeptide ligand, electron microscopy. Format: biochemical. The conditions noted are these: for reduction of Aβ fibrillation or aggregation: summary statement, Aβ peptide not specified (FIG. 7: Aβ(14-23)); for density of Aβ(14-23) fibrils (fibril formation): 100 μM Aβ(14-23), 1 mM ligand peptide, three days at 37° C., PBS pH 7.4, electron microscopy, semi quantitative. The procedure:
as §1, §2

Another data set addresses T3, Aβ(12-24) (Homo sapiens, UniProt P05067).
T3 construct: 12-24. and 14-23 were purchased from Research Genetics; purchased Research Genetics, Huntsville, Ala., USA; host or cells: chemical synthesis
In words: Fibril formation by Aβ(12-24) with tripeptide ligand, electron microscopy. The data set is classed as biochemical. The conditions noted are these: 100 μM Aβ(12-24), 1 mM ligand peptide, three days at 37° C., PBS pH 7.4, electron microscopy, semi quantitative. Here is the method: as §1
as §2, with “Excess fluid was withdrawn after 30 seconds, and after air-drying the grids were negatively stained with 2% uranyl acetate in water. The stained grids were examined and photographed in a Philips CM120TWIN electron microscope operated at 80 kV.” left out, “The specimens were subsequently examined at high magnification to judge the size of the fibril bundles, the presence of smaller fibril aggregates, and the morphology of the individual fibrils.” left out

For data set [4], the target named is T1, Aβ(1-40). Nature of the data set: Fibril morphology of Aβ(1-40) in the presence of peptides, electron microscopy. The data set is classed as biochemical. The conditions noted are these: in the presence of the peptide, compared with AAA or acetyl-AAA-amide. The procedure: as §2
Data set [5] is described as follows: Fibril formation of proteins with long discordant helices, electron microscopy of 20,000×g pellets. The following applies: 10 μM to 100 μM in phosphate buffered saline pH 7.4, 37° C., three days. The data set is classed as physicochemical. An excerpt:
The proteins used in these experiments included SP-C (lung SP-C forms amyloid in pulmonary alveolar proteinosis) purified from porcine lungs (Curstedt et al, 1987, Eur. J. Biochem. 168:255-262). PolyVal→polyLeu substituted SP-C (SP-C(Leu)) analogue was synthesized as described by Nilsson et al. (1998, Eur. J. Biochem, 255:116-124) was used in the experiments as was D-analyl-D-alanine transpeptidase from Streptomyces R61 was obtained from Drs. Frére and Joris, University of Liege, Belgium (Frere et al, 1973, Biochem. J. 135:463-468). Triacylglycerol lipase from Candida antarctica and human coagulation factor XIII were purchased from Sigma. For these fibrillation studies the latter three proteins were dissolved in phosphate buffered saline, pH 7.4, in concentrations ranging from 10 μM to 100 μM. SP—C and SP-C (Leu) were dissolved at 100 μM or 250 μM in chloroform/methanol/0.1 M HCl, 32:64:5 (by volume).
To assay for the formation of fibrils, the protein solutions were incubated at 37° C. for three days, then centrifuged at 20,000×g for 20 minutes. The concentrations of SP-C and SP-C(Leu) in the supernatants were determined by amino acid analysis of triplicate samples. Peptide concentration at start of the incubations was 250 μM for SP-C(Leu) and 100 μM for SP-C. […]

T1 sequence (P05067 672-711): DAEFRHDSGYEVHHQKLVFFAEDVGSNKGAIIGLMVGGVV

Take AAA: the “density of Aβ(1-40) fibrils (fibril formation)” value (“density of Aβ(1-40) fibrils” for short) at Aβ(1-40) [1] is reported as “no significant effect”. In addition, the “time until Aβ(1-40) completely aggregated” value at Aβ(1-40) [2] was in the range of 10 to 15 days.

Take “Aβ(1-28) with alanine substitutions at positions 16, 17, and 20: Aβ(1-28) variant K16A, L17A, F20A (DAEFRHDSGYEVHHQAAVFAAEDVGSNK; Amyloid-beta protein 42; UniProt P05067 672-699, looked up, variant K16A L17A F20A)”: the “fibril formation of the Aβ analogue itself” value in data set [3] is given as “does not form fibrils”.

As to “KAAE (Synthetically generated peptide) [dipolar tetrapeptide KAAE]”, in the data set with Aβ(14-23), the “reduction of Aβ fibrillation or aggregation” value is recorded as “did not reduce”.

As for KAD, the “density of Aβ(14-23) fibrils (fibril formation)” value (from here on “density of Aβ(14-23) fibrils”) in the data set with Aβ(14-23) is reported as “significant reduction of fibril density”. For the same substance, the “density of Aβ(12-24) fibrils (fibril formation)” value with Aβ(12-24) was “significant reduction of fibril density”. Besides, the “density of Aβ(1-40) fibrils” value with Aβ(1-40) [1] is reported as “significant reduction of fibril density”. The “time until Aβ(1-40) completely aggregated” value in the data set with Aβ(1-40) [2] was 30 to 40 days. Besides, the “morphology of Aβ(1-40) fibrillar structures” value with Aβ(1-40) [4] is “much shorter and more dispersed”.

Turning to “KFD [dipolar tripeptide, central Ala of KAD replaced with Phe]”, in the data set with Aβ(14-23), the “density of Aβ(14-23) fibrils” value is given as “reduced Aβ(14-23) fibril formation, but to a lesser extent than KAD”.

As for “KFFE (Synthetically generated peptide) [dipolar tetrapeptide KFFE]”, in the data set with Aβ(14-23), the “density of Aβ(14-23) fibrils” value is “slightly promote fibril formation” and the “reduction of Aβ fibrillation or aggregation” value is reported as “did not reduce”. Besides, the “time until Aβ(1-40) completely aggregated” value in the data set with Aβ(1-40) [2] is on record as “about 3 days”.

On to acetyl-AAA-amide, for which, at Aβ(1-40) [1], the “density of Aβ(1-40) fibrils” value is recorded as “no significant effect”.

In the case of acetyl-KAD-amide (Ac-Lys-Ala-Asp-NH2), the “density of Aβ(1-40) fibrils” value with Aβ(1-40) [1] is reported as “equally efficient in reducing Aβ(1-40) fibril formation as the KAD peptide with free termini”. In addition, in the data set with Aβ(1-40) [4], the “morphology of Aβ(1-40) fibrillar structures” value is “much shorter and more dispersed”.

For “coagulation factor XIII: human coagulation factor XIII, purchased from Sigma”, the “fibril formation of the protein itself” value in data set [5] was “form fibrils”.

For the substance “unsubstituted Aβ(1-28): positions 1-28 of human Aβ”, the “fibril formation of the Aβ analogue itself” value in data set [3] is reported as “forms fibrils”.

The values above are taken from patent US9580460B2, “Discordant helix stabilization for prevention of amyloid formation” (AlphaBeta AB, priority 2000, dated 2017).
